Laboratory results from article PMC4456216 (Nature structural & molecular biology, 2015).

B1: BMAL2 transactivation domain (TAD), residues 540-579 (domain or fragment, mouse, UniProt Q2VPD4 540-579, looked up)
chain: LGFDVLCDSDSIDMAAFMNYLEAEGGLGDPGDFSDIQWAL
B2: mouse CRY1 CC peptide (residues 470-503) (peptide)
peptide: MVNHAEASRLNIERMKQIYQQLSRYRGLGLLASV
B3: mouse CBP KIX domain (domain or fragment)
chain: not shown

Assays:
[1] = biological target: p300 KIX domain (residues 565-653) (mouse, UniProt B2RWS6 565-653); assay: NMR titration
[2] = biological target: B1; assay: ITC

Sequence of p300 KIX domain (residues 565-653) (B2RWS6 565-653): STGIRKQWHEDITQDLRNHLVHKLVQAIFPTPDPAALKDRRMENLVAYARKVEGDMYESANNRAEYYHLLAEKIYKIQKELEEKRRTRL

**Q.** Does B1 bind [1]?
**A.** binds

**Q.** Which “stoichiometry N” value [2] does the source give for B2 here?
**A.** 0.7

**Q.** B3 was tested. Which “stoichiometry N” value [2] did it give?
**A.** 0.7
